Reference: patent US20170306005A1 (NASCIENT, published 2017)

What was measured:
[1] = target: T1, human tenascin-R rCd4-His-FBG (rat; human, UniProt P05540 207-392, limits assumed); test: SPR off-rate screen, captured IgG4 supernatant, 25 C; SPR off-rate screen, native antigen at 100 nM, IgG4 in supernatant, 25 C
T1 construct: domain: domains 3 and 4; C-terminal FBG fusion; also called Hu TNR; human TNR rCd4-His-FBG; not shown: 6His tag
T1 sequence (chain (part 1 of 2)): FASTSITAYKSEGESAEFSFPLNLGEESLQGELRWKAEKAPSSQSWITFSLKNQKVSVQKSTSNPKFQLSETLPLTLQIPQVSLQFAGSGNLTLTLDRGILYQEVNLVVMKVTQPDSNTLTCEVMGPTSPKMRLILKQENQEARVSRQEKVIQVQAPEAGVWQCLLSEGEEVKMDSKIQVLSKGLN
T1 sequence (chain (part 2 of 2)): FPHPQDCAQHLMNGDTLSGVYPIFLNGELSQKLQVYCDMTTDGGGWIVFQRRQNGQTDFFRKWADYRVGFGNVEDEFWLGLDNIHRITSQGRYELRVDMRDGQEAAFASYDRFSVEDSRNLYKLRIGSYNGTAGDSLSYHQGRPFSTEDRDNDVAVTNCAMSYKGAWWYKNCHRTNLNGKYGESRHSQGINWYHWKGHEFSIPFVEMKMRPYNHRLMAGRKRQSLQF
Description: The 31 scFv of interest were sub-cloned into a human IgG4 expression vector for generation of antibodies as human IgG4 with a hinge-stabilising mutation (S241P; Angal et al, 1993). […] Briefly, surface plasmon resonance (SPR) experiments were performed using a BIAcore T100 instrument and followed the protocol according to the Human antibody capture kit protocol (GE, BR-1008-39). For off-rate screening, 10,000 response units (RU) of anti-human Fc IgG (GE, BR-1008-39) was immobilised on flow-cells (FC1 and FC2) of a Series 5 CM5 dextran sensor chip (BR-1005-30) using EDC/NHS cross-linking chemistry according to the amine coupling kit protocol (GE, BR-1000-50). Culture supernatants containing expressed IgG4 were diluted 1:2 with 2×PBS-T and injected into FC2 (flowrate 5 μl/min, 60 s contact time) to enable antibody capture at 25° C. […] A fixed concentration of antigen (15 nM of human and mouse TNC rCd4-His-FBG and 100 nM of human TNR rCd4-His-FBG) was injected with a flow-path via FC 1 (reference flow cell) and FC 2 (antibody capture flow cell), with a flow rate of 30 μl/min, and the association and dissociation phases measured over 1 and 5 min time periods, respectively. […] Off rates were determined by reference cell subtraction and fitting the sensogram experimental data assuming a 1:1 interaction using BIAevaluation software (GE, BR-1005-97).

human His-FBG = target: T2, human His-FBG (human, UniProt P24821 1974-2201); test: SPR, captured IgG4, 25 C, mean of 3
T2 construct: non-citrullinated control, incubated in deimination buffer without PAD enzyme; also called unmodified His-FBG; not shown: His tag
T2 sequence: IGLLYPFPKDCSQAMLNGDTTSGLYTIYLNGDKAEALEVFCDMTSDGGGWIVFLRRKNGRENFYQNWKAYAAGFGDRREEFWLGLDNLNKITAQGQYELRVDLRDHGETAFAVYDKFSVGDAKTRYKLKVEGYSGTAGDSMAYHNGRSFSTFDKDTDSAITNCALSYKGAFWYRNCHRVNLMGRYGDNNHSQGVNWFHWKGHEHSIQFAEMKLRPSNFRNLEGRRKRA
Description: (§1) Purified human His-FBG was citrullinated using either peptidylarginine deiminase 2 (PAD2; MQ-16.201-2.5, Modiquest, NL) or peptidylarginine deiminase 4 (PAD4; MQ-16.203-2.5, Modiquest, NL) according to the supplier's instructions. […] Aliquots of His-FBG in deimination buffer were incubated for 2 h at 37° C. in the absence of added PAD enzyme, for use as non-citrullinated control protein. Citrullinated and unmodified His-FBG proteins were used in SPR experiments as described below.
(§2) SPR experiments were performed on a BIAcore 3000 instrument. Anti-human IgG (GE Healthcare) was covalently coupled to the surface of a CM5 sensor chip using amino coupling chemistry. […] The flow rate was 5 μl/min in the immobilization experiments and 20 μl/min for kinetic analyses. The sensor chip surface was regenerated using 3 M MgCl₂. Data were analysed using BIAevaluation program 4.1 (GE Healthcare).

[2] = target: T3, human His-FBG citrullinated with PAD4 (human, UniProt P24821 1974-2201, arginines citrullinated by peptidylarginine deiminase 4; positions not stated); test: SPR, captured IgG4, 25 C, mean of 3
T3 construct: also called His-FBG + PAD4; citrullinated His-FBG; not shown: His tag
T3 sequence: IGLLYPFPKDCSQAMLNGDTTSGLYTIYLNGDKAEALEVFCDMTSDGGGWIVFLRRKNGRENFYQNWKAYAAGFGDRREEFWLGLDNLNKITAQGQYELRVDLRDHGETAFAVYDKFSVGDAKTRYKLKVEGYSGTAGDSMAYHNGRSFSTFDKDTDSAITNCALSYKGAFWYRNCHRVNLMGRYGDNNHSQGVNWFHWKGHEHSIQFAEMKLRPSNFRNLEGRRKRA
Description: as §1, §2

[3] = target: T4, human His-FBG citrullinated with PAD2 (human, UniProt P24821 1974-2201, arginines citrullinated by peptidylarginine deiminase 2; positions not stated); test: SPR, captured IgG4, 25 C, mean of 3
T4 construct: also called His-FBG + PAD2; citrullinated His-FBG; not shown: His tag
T4 sequence: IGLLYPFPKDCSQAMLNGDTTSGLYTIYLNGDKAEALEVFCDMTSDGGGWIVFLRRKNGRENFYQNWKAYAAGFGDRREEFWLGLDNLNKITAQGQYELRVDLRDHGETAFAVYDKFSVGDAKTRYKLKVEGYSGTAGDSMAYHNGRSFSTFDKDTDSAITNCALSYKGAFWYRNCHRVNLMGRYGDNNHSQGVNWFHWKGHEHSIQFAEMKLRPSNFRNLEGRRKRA
Description: as §1, §2

[4] = target: T5, mouse tenascin-C rCd4-His-FBG (rat; mouse, UniProt P05540 207-392, limits assumed); test: SPR, captured purified IgG4, 37 C
T5 construct: domain: domains 3 and 4; C-terminal FBG fusion; biotinylated in the ELISA screen; also called Mu TNC; mouse TNC rCd4-His-FBG; not shown: 6His tag
T5 sequence (chain (part 1 of 2)): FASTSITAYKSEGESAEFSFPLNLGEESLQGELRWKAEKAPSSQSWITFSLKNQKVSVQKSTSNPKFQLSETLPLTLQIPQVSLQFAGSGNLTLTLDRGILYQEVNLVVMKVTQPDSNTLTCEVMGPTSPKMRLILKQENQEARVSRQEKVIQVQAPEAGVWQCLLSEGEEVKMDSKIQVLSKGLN
T5 sequence (chain (part 2 of 2)): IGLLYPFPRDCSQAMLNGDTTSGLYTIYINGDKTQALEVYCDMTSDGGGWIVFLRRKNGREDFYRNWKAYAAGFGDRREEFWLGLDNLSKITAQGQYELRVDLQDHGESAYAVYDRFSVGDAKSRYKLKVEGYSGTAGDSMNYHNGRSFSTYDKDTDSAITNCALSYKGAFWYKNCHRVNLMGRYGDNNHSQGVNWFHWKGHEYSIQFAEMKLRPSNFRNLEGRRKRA
Description: (§3) Detailed kinetic parameters were evaluated for the 9 prioritised IgG4 antibodies. Binding characteristics were determined for interaction with human, rat and dog TNC rCD4-His-FBG, and human TNR rCD4-His-FBG. Kinetic assays followed essentially the same protocols as for the off-rate determinations described above, with some modifications as follows. […] Purified anti-FBG IgG4 was diluted to a concentration of 3.5 nM in PBS, pH 7.4, 0.05% Tween-20 and injected into FC2 at a flow rate of 10 μl/min, 60 s contact time. […] Antigens were prepared by doubling dilution in PBS, pH 7.4, 0.05% Tween-20 (highest concentration 100 nM except mouse rCD4-His-FBG which was 7 nM). Assays were performed at 37° C. (30 μl/min, 120 s contact time; mouse rCD4-His-FBGFBG 10 μl/min, 60 s contact time), with both the flow cell and injection chamber equilibrated to this temperature. As before, kinetic parameters were determined by reference cell subtraction and fitting the sensogram experimental data assuming a 1:1 interaction using BIAevaluation software (GE, BR-1005-97).

[5] = target: T6, human tenascin-C rCd4-His-FBG (rat; human, UniProt P05540 207-392, limits assumed); test: SPR, captured purified IgG4, 37 C
T6 construct: domain: domains 3 and 4; C-terminal FBG fusion; biotinylated in the ELISA and HTRF screens; also called Hu TNC; human TNC rCd4-His-FBG; not shown: 6His tag
T6 sequence (chain (part 1 of 2)): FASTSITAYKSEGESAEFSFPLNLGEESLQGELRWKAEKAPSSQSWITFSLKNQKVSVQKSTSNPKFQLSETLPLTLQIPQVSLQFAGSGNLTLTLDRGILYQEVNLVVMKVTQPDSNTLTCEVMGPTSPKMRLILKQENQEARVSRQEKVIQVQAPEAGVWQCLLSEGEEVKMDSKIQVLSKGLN
T6 sequence (chain (part 2 of 2)): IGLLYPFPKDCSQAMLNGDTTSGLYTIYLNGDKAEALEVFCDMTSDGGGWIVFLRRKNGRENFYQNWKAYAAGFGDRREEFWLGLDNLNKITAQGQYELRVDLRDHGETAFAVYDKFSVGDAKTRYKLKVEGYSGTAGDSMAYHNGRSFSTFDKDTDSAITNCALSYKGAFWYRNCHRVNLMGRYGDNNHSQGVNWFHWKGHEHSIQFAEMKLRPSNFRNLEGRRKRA
Description: as §3

[6] = target: T5, mouse tenascin-C rCd4-His-FBG; test: SPR off-rate screen, captured IgG4 supernatant, 25 C
In short: (§4)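 SPR at 25 °C: IgG4 (S241P) from culture supernatant, diluted 1:2 in 2×PBS-T, captured on anti-human Fc surface; antigen injected at a fixed 15 nM (human and mouse TNC rCd4-His-FBG) or 100 nM (human TNR rCd4-His-FBG), 30 μl/min. Association 1 min, dissociation 5 min; off-rates from reference-subtracted 1:1 fits.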

[7] = target: T6, human tenascin-C rCd4-His-FBG; test: as above
In short: as §4

B1: B12 human IgG4 (antibody, V domains shown)
VH: QVQLVESGGGLVQPGRSLRLSCAASGFTFDDYAMHWVRQAPGKGLEWVSGISGSGGSTYYADSVKGRFTISRDNAKNSLYLQMNSLRAEDTALYYCAKDISAVPDTFDIWGQGTMVTVSS
VL: DIQMTQSPASLPTPVGDRVTITCRASQYIQGFLNWYQQKPGKAPKLLIYDASNLETGVPSRFSGSGSGTDFTLTISSLQPEDFATYYCQQSYSTPQTFGQGTKVDIKR
notes: human IgG4 with hinge S241P; also called B12 parent; B12-hIgG4
koff [1]: 0.1 s⁻¹ | Kd (human His-FBG): 170 pM | koff (human His-FBG): 0.00068 s⁻¹ | kon (human His-FBG): 4.1e+06 M⁻¹ s⁻¹ | Kd [2]: 320 pM | koff [2]: 0.00078 s⁻¹ | kon [2]: 2.6e+06 M⁻¹ s⁻¹ | Kd [3]: 320 pM | koff [3]: 0.00096 s⁻¹ | kon [3]: 3e+06 M⁻¹ s⁻¹ | Kd [4]: 4500 pM | koff [4]: 0.00138 s⁻¹ | kon [4]: 300000 M⁻¹ s⁻¹ | Kd [5]: 240 pM | koff [5]: 0.00112 s⁻¹ | kon [5]: 4.71e+06 M⁻¹ s⁻¹ | koff [6]: 0.03 s⁻¹ | koff [7]: 0.00015 s⁻¹
